# Experiments:
# ErbB4.Fc [1] = target: T1, ErbB4.Fc (UniProt Q15303); assay: displacement of ^125I-NRG3^EGF.Fc (80 pM) from immobilized ErbB4.Fc by NRG1^EGF, 96-well plate, nonlinear regression
# T1 sequence (looked up): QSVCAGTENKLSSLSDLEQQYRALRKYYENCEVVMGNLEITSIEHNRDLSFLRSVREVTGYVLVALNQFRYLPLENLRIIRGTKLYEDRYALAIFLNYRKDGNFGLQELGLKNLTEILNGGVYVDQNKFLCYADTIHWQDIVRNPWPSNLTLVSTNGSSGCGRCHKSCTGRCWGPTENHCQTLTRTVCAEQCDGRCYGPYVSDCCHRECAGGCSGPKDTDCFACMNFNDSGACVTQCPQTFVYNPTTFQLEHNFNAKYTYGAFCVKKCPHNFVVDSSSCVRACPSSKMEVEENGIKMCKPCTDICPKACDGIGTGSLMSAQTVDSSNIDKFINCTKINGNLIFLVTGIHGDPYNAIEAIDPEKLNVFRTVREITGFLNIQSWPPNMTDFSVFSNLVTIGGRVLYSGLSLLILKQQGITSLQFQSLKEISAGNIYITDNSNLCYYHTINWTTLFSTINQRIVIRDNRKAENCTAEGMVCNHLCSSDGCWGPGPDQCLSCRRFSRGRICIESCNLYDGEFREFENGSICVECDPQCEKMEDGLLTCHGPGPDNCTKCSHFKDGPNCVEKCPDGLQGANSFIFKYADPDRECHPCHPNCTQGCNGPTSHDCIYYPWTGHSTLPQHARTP
# ErbB4.Fc [2] = target: T1, ErbB4.Fc; assay: displacement of ^125I-NRG3^EGF.Fc (80 pM) from immobilized ErbB4.Fc by unlabeled NRG3^EGF.Fc, 96-well plate, nonlinear regression
# NRG3^EGF.Fc, sequence (O35181 284-344 limits assumed): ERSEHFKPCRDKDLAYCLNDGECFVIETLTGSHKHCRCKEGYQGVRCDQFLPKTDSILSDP
Ki (ErbB4.Fc [1]),Ki (ErbB4.Fc [2]),Substance
1 nM,–,"NRG1^EGF (EGF-like domain of heregulin-β1, rHRGβ1 177-244) (from UniProt Q02297 177-244) (ligand)"
–,9 nM,NRG3^EGF.Fc (from UniProt O35181 284-344) (Fc fusion)

# — patent US20030036166A1
